Results reported in patent US20240261333A1 (published 2024).

T1: NUFIP2 (human, UniProt Q7Z417 1-695)
T1 construct: also called NP_065823.1
T1 sequence (looked up): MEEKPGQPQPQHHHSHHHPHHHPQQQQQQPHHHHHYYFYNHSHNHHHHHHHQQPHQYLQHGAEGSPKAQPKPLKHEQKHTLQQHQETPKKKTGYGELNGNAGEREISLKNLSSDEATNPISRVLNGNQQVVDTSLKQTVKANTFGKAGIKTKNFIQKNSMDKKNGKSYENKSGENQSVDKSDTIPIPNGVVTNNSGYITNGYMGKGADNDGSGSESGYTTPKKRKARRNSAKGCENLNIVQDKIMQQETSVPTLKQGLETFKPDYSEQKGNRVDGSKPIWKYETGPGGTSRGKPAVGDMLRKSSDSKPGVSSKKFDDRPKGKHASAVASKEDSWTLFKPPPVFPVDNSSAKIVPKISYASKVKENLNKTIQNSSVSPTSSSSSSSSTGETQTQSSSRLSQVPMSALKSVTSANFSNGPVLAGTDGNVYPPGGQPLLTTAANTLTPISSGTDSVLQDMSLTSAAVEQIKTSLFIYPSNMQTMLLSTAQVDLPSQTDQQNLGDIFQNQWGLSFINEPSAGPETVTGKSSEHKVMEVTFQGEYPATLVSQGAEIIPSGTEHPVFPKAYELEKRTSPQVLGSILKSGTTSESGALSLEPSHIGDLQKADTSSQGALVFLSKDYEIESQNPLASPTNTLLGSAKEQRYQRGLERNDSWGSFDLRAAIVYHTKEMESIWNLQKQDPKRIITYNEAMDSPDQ

T2: IPO13 (human, UniProt O94829 1-963)
T2 construct: also called NP_055467.3
T2 sequence (looked up): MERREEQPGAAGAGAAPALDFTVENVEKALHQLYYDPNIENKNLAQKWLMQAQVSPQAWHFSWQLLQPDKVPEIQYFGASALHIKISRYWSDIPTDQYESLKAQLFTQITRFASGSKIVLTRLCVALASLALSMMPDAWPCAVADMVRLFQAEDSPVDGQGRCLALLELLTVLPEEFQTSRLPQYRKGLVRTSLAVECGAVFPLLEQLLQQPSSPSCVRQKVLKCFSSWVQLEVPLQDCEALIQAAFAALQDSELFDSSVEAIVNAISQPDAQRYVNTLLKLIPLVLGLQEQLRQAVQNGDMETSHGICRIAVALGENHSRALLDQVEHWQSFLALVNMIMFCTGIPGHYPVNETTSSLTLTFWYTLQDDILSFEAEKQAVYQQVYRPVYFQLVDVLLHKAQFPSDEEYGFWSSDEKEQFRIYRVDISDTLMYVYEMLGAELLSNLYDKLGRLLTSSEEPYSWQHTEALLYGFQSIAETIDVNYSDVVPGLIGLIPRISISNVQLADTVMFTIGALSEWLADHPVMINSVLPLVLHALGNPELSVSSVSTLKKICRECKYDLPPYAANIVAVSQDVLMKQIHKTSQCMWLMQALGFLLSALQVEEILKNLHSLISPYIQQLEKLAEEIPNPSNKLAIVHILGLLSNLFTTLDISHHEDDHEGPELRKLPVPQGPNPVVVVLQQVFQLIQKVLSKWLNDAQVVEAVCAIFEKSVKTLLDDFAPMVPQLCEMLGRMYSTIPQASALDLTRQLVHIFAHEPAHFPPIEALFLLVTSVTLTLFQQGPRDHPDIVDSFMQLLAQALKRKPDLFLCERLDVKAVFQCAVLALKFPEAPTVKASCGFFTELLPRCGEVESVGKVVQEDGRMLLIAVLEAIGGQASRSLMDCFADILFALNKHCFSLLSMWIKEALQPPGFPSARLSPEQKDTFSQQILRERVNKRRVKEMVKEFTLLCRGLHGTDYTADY


Legend:
NUFIP2 = target: T1, NUFIP2; assay: co-IP, anti-FLAG, lysate of cells with N-FLAG B3GNT2; mass spectrometry
Protocol: (§1) Cells were plated in 10-cm cell culture dishes and grown to 60-80% confluency. For each condition, two biological replicates were harvested for co-IP. Cells were washed with PBS and 4 mL of lysis buffer (20 mM HEPES, 1% Triton X-100, 150 mM NaCl, 1 mM EDTA, and 10% glycerol) containing protease inhibitor cocktail was added. Cells were scraped and lysate was incubated at 4° C. under rotary agitation for 1 h. Lysate was centrifuged at 14,000×g for 10 min at 4° C. Supernatant was transferred to a new tube and an aliquot was taken as the input. […] For Western blots, 10 μg/mL Chicken Anti-FLAG (Aves labs ET-DY100) and IgY control (R&D Systems AB-101-C) antibodies were biotinylated (Thermo Fisher Scientific 90407) and added to the respective conditions. Lysates with antibodies were incubated at 4° C. under rotary agitation overnight. For each mL of lysate, 50 μL of Pierce Protein A/G Magnetic Beads (Mass spectrometry; Thermo Fisher Scientific 88803) or Pierce Streptavidin Magnetic Beads (Western blot; Thermo Fisher Scientific 88817) was washed twice with lysis buffer. Lysates with antibodies were added to the beads and incubated at 4° C. under rotary agitation for 4 h. Beads were washed with lysis buffer 3 times and resuspended in lysis buffer for storage.
(§2) Magnetic beads were resuspended in 100 mM Tris pH 7.8, reduced, alkylated and digested with trypsin at 37° ° C. overnight. This solution was subjected to solid phase extraction to concentrate the peptides and remove unwanted reagents followed by injection onto a Shimadzu HPLC with fraction collector. Eight fractions were collected and after concentration were injected on a Waters NanoAcquity HPLC equipped with a self-packed Aeris 3 μm C18 analytical column 0.075 mm by 20 cm, (Phenomenex). Peptides were eluted using standard reverse-phase gradients. The effluent from the column was analyzed using a Thermo Orbitrap Elite mass spectrometer (nanospray configuration) operated in a data dependent manner for 54 minutes. The resulting fragmentation spectra were correlated against the known database using Proteome Discover 1.4 (Thermo Fisher Scientific).

PRRC2A = target: T3, PRRC2A (human, UniProt P48634 1-2157); assay: as above
T3 construct: also called NP_004629.3 (+1)
T3 sequence (P48634 whole entry): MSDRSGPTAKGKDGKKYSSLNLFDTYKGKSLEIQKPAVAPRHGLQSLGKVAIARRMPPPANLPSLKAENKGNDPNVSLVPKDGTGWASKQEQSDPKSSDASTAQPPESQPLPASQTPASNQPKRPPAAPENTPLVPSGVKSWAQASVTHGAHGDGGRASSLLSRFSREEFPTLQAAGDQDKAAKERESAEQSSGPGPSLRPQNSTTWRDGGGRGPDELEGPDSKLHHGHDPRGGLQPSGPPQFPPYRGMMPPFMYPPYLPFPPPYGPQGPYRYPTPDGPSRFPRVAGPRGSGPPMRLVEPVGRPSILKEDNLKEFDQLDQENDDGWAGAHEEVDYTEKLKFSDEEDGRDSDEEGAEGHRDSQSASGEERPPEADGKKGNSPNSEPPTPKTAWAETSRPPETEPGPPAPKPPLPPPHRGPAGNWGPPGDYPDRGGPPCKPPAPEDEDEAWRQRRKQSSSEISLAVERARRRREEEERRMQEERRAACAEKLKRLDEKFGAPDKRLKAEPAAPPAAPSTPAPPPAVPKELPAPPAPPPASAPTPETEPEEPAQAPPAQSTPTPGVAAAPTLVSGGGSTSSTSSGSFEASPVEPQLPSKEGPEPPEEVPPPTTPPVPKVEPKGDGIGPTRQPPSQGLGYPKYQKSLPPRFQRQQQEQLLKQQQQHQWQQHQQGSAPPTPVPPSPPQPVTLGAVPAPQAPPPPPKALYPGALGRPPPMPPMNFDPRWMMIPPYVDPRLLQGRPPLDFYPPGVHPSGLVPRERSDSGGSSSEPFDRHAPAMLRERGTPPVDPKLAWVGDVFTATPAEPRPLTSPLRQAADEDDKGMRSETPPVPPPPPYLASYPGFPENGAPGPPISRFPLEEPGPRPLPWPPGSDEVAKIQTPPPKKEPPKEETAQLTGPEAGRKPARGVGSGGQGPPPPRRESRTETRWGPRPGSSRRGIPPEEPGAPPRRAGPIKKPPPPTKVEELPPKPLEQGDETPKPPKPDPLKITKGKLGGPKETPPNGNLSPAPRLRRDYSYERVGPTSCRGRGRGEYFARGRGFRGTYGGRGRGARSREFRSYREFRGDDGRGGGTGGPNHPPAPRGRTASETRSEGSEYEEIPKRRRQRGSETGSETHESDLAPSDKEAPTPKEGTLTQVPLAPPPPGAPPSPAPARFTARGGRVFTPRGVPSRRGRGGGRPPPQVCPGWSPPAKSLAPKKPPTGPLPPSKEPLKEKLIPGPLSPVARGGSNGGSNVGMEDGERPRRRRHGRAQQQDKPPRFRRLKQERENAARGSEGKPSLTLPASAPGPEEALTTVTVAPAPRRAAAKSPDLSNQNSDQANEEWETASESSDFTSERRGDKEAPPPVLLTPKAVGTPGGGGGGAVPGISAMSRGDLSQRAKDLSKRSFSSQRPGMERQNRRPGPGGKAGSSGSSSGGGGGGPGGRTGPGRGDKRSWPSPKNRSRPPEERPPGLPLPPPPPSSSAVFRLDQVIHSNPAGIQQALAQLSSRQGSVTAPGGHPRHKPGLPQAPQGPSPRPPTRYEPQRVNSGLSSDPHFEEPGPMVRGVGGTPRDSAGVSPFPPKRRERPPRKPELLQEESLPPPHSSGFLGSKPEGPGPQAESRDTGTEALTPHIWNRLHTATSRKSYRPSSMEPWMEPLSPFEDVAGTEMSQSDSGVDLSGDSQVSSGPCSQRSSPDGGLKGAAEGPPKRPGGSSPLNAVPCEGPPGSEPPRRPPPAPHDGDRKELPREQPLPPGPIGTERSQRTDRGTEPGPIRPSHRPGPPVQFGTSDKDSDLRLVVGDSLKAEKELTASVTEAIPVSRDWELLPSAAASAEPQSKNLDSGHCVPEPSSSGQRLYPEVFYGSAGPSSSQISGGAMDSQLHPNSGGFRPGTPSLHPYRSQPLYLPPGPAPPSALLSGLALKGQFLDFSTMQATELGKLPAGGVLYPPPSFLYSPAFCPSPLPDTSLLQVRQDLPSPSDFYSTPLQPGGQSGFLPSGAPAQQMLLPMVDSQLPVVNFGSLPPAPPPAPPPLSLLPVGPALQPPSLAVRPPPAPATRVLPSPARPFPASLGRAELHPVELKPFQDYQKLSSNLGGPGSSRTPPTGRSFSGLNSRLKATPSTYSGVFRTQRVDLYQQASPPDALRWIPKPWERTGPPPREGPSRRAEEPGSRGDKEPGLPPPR
Protocol: as §1, §2

CTHRC1 = target: T4, CTHRC1 (human, UniProt Q96CG8-3 1-229, limits assumed); assay: co-IP with anti-FLAG, mass spectrometry; lysate of cells with N-FLAG B3GNT2
T4 construct: also called NP_001243028.1 (+1)
T4 sequence (Q96CG8 other isoform, or with tags, fused parts or gaps limits assumed): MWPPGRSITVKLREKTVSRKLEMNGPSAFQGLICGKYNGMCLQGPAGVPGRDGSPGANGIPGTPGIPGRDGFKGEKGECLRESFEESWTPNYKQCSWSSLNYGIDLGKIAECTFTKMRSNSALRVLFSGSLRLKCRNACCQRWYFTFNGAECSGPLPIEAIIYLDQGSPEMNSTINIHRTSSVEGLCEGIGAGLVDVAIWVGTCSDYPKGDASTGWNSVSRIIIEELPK

IPO13 = target: T2, IPO13; assay: as above

co-IP mass spectrometry count (NUFIP2) | co-IP mass spectrometry count (PRRC2A) | co-IP mass spectrometry count (CTHRC1) | co-IP mass spectrometry count (IPO13) | Binder
3 | 2 | – | – | N-terminal FLAG tagged B3GNT2 (enzyme, human, UniProt Q9NY97 1-397, looked up, Overexpressed in cells and pulled down from the lysate with mouse anti-FLAG antibody; also called N-FLAG B3GNT2; N-term FLAG; not shown: N-terminal FLAG tag) MSVGRRRIKLLGILMMANVFIYFIMEVSKSSSQEKNGKGEVIIPKEKFWKISTPPEAYWNREQEKLNRQYNPILSMLTNQTGEAGRLSNISHLNYCEPDLRVTSVVTGFNNLPDRFKDFLLYLRCRNYSLLIDQPDKCAKKPFLLLAIKSLTPHFARRQAIRESWGQESNAGNQTVVRVFLLGQTPPEDNHPDLSDMLKFESEKHQDILMWNYRDTFFNLSLKEVLFLRWVSTSCPDTEFVFKGDDDVFVNTHHILNYLNSLSKTKAKDLFIGDVIHNAGPHRDKKLKYYIPEVVYSGLYPPYAGGGGFLYSGHLALRLYHITDQVHLYPIDDVYTGMCLQKLGLVPEKHKGFRTFDIEEKNKNNICSYVDLMLVHSRKPQEMIDIWSQLQSAHLKC
– | – | 0 | 0 | N-terminal FLAG tagged B3GNT2 (enzyme, human, UniProt Q9NY97 1-397, looked up, Bait of the co-IP; pulled down with mouse anti-FLAG (Millipore Sigma F3165) from cell lysate; also called N-FLAG B3GNT2; N-term FLAG; not shown: N-terminal FLAG tag) MSVGRRRIKLLGILMMANVFIYFIMEVSKSSSQEKNGKGEVIIPKEKFWKISTPPEAYWNREQEKLNRQYNPILSMLTNQTGEAGRLSNISHLNYCEPDLRVTSVVTGFNNLPDRFKDFLLYLRCRNYSLLIDQPDKCAKKPFLLLAIKSLTPHFARRQAIRESWGQESNAGNQTVVRVFLLGQTPPEDNHPDLSDMLKFESEKHQDILMWNYRDTFFNLSLKEVLFLRWVSTSCPDTEFVFKGDDDVFVNTHHILNYLNSLSKTKAKDLFIGDVIHNAGPHRDKKLKYYIPEVVYSGLYPPYAGGGGFLYSGHLALRLYHITDQVHLYPIDDVYTGMCLQKLGLVPEKHKGFRTFDIEEKNKNNICSYVDLMLVHSRKPQEMIDIWSQLQSAHLKC
